B1: GST-tagged human GABARAP (natural protein)
chain: MKFVYKEEHPFEKRRSEGEKIRKKYPDRVPVIVEKAPKARIGDLDKKKYLVPSDLTVGQFYFLIRKRIHLRAEDALFFFVNNVIPPTSATMGQLYQEHHEEDFFLYIAYSDESVYGL

What was measured:
[1] = biological target: B1; assay: pull-down
[2] = biological target: Recombinant WT XIAP protein (human, UniProt P98170 1-497); assay: pull-down
Chain of Recombinant WT XIAP protein (P98170 whole entry): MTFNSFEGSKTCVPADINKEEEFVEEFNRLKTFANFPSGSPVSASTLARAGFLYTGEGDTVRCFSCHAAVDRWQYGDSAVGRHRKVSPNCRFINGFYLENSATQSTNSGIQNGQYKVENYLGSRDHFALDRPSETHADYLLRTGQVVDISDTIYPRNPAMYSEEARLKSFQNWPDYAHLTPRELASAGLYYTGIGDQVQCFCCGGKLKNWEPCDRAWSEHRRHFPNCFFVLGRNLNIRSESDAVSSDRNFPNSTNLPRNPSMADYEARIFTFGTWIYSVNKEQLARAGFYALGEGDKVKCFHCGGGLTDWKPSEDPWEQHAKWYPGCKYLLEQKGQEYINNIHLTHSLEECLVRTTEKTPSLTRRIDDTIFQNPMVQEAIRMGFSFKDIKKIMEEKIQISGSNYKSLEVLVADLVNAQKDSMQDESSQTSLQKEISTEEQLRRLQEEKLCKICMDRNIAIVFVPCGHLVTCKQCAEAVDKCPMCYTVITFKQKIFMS

Row | Binder | binding result [1] | binding result [2]
1 | EDEWVNVQY [GIM-containing peptide EDEWVNVQY] | binds | 
2 | B1 |  | binds

— publication doi:10.1101/291294 (bioRxiv, 2018)
